This note sets out measurements from the supplement of paper PMC10567573.

First the molecules themselves.
B1: GAGE1 (parent)
chain: QPPEMIGPMRPEQFSDEVEPATPE
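Further: lentivirally expressed fusions sorted by FACS into six bins by GFP to DsRed ratio, PSI derived from sequencing read proportions per bin multiplied by bin number.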

Variants of B1 are the subject of the data set. Briefly: protein stability index of a GFP-peptide fusion (GPS, HEK-293T) (PSI 1-6); higher = more stable. Particulars: c terminus: a fixed tail appended.
Regarding QPPEMIGPMRPEQFWDEVEPATPE [S15W], the protein stability index worked out at 4.8.
Next, QPPEMIGPMRPEQFEDEVEPATPE [S15E]: 5.49.
Next, QPPEMIGPMRPEQFADEVEPATPE [S15A]: 4.71.
Turning to QPPEMIGPMRPEQFCDEVEPATPE [S15C], the protein stability index came out at 5.31.
Regarding QPPEMIGPMRPEQFDDEVEPATPE [S15D], the protein stability index was 4.57.
Take QPPEMIGPMRPEQFNDEVEPATPE [S15N]: the protein stability index was determined as 5.32.
Turning to QPPEMIGPMRPEQFTDEVEPATPE [S15T], the protein stability index amounted to 5.27.
Next, QPPEMIGPMRPEQFKDEVEPATPE [S15K]: 5.72.
Turning to QPPEMIGPMRPEQFVDEVEPATPE [S15V], the protein stability index was 4.73.
As for QPPEMIGPMRPEQFFDEVEPATPE [S15F], the protein stability index is 3.19.
Next, QPPEMIGPMRPEQFHDEVEPATPE [S15H]: 4.75; QPPEMIGPMRPEQFYDEVEPATPE [S15Y]: 4.59; QPPEMIGPMRPEQFRDEVEPATPE [S15R]: 5.37.
As for QPPEMIGPMRPEQFIDEVEPATPE [S15I], the protein stability index worked out at 5.08.
Next, QPPEMIGPMRPEQFLDEVEPATPE [S15L]: 4.79.
Regarding QPPEMIGPMRPEQFGDEVEPATPE [S15G], the protein stability index amounted to 4.48.
QPPEMIGPMRPEQFPDEVEPATPE [S15P]: the protein stability index was 4.67.
Next, QPPEMIGPMRPEQFMDEVEPATPE [S15M]: 4.22; QPPEMIGPYRPEQFSDEVEPATPE [M9Y]: 5.5; QPPEMIGPMRPEQVSDEVEPATPE [F14V]: 5.48.
In the case of QPPEMIGPMRPEQASDEVEPATPE [F14A] it was 5.4.
Next, QPPEMIGPMRPEQESDEVEPATPE [F14E]: 5.49.
Take QPPEMIGPMRPEQNSDEVEPATPE [F14N]: the protein stability index stood at 5.87.
Regarding QPPEMIGPMRPEQDSDEVEPATPE [F14D], the protein stability index was 5.8.
In the case of QPPEMIGPMRPEQMSDEVEPATPE [F14M] it was 5.57.
In the case of QPPEMIGPMRPEQGSDEVEPATPE [F14G] it was 5.68; in that of QPPEMIGPMRPEQTSDEVEPATPE [F14T], 5.81; in that of QPPEMIGPMRPEQSSDEVEPATPE [F14S], 5.97.
As for QPPEMIGPMRPEQPSDEVEPATPE [F14P], the protein stability index worked out at 5.84.
For the variant QPPEMIGPMRPEQRSDEVEPATPE [F14R], the protein stability index came to 5.72.
Turning to QPPEMIGPMRPEQISDEVEPATPE [F14I], the protein stability index was determined as 5.28.
For the variant QPPEMIGPMRPEQHSDEVEPATPE [F14H], the protein stability index is 5.46.
Next, QPPEMIGPMRPEQLSDEVEPATPE [F14L]: 5.61; QPPEMIGPMRPEQCSDEVEPATPE [F14C]: 5.29; QPPEMIGPMRPEQQSDEVEPATPE [F14Q]: 5.56.
For the variant QPPEMIGPMRPEQKSDEVEPATPE [F14K], the protein stability index was determined as 4.13.
With QPPEMIGPMRPEQWSDEVEPATPE [F14W], the protein stability index came out at 5.65.
Next, QPPEMIGPMRPEQYSDEVEPATPE [F14Y]: 4.75; QPPEMIGPMRLEQFSDEVEPATPE [P11L]: 5.37; QPPEMIGPMRGEQFSDEVEPATPE [P11G]: 5.65.
On to QPPEMIGPMRHEQFSDEVEPATPE [P11H], for which the protein stability index was 5.82.
For QPPEMIGPMRYEQFSDEVEPATPE [P11Y], the protein stability index was 5.43.
Next, QPPEMIGPMRAEQFSDEVEPATPE [P11A]: 5.35; QPPEMIGPMRWEQFSDEVEPATPE [P11W]: 5.39.
In the case of QPPEMIGPMRDEQFSDEVEPATPE [P11D] it was 5.69.
Next, QPPEMIGPMRIEQFSDEVEPATPE [P11I]: 4.87; QPPEMIGPMRTEQFSDEVEPATPE [P11T]: 5.61.
QPPEMIGPMRNEQFSDEVEPATPE [P11N]: the protein stability index came out at 5.44.
Regarding QPPEMIGPMRQEQFSDEVEPATPE [P11Q], the protein stability index was 5.34.
On to QPPEMIGPMRREQFSDEVEPATPE [P11R], for which the protein stability index was found to be 5.55.
As for QPPEMIGPMRVEQFSDEVEPATPE [P11V], the protein stability index amounted to 5.7.
Consider QPPEMIGPMREEQFSDEVEPATPE [P11E], for which the protein stability index is 5.69.
Next, QPPEMIGPMRCEQFSDEVEPATPE [P11C]: 5.5.
In the case of QPPEMIGPMRKEQFSDEVEPATPE [P11K] it was 5.63; in that of QPPEMIGPMRSEQFSDEVEPATPE [P11S], 5.6.
In the case of QPPEMIGPMRFEQFSDEVEPATPE [P11F] it was 5.5; in that of QPPEMIGPMRMEQFSDEVEPATPE [P11M], 4.9; in that of QPPEMIGPMAPEQFSDEVEPATPE [R10A], 5.17.
For QPPEMIGPMKPEQFSDEVEPATPE [R10K], the protein stability index came to 4.93.
In the case of QPPEMIGPMWPEQFSDEVEPATPE [R10W] it was 5.34; in that of QPPEMIGPMIPEQFSDEVEPATPE [R10I], 5.24; in that of QPPEMIGPMNPEQFSDEVEPATPE [R10N], 5.28.
In the case of QPPEMIGPMPPEQFSDEVEPATPE [R10P] it was 5.78; in that of QPPEMIGPMDPEQFSDEVEPATPE [R10D], 3.42; in that of QPPEMIGPMCPEQFSDEVEPATPE [R10C], 5.51.
In the case of QPPEMIGPMFPEQFSDEVEPATPE [R10F] it was 5.47; in that of QPPEMIGPMTPEQFSDEVEPATPE [R10T], 4.38.
On to QPPEMIGPMMPEQFSDEVEPATPE [R10M], for which the protein stability index turned out to be 5.12.
Take QPPEMIGPMHPEQFSDEVEPATPE [R10H]: the protein stability index was 5.2.
Take QPPEMIGPMQPEQFSDEVEPATPE [R10Q]: the protein stability index turned out to be 4.4.
In the case of QPPEMIGPMLPEQFSDEVEPATPE [R10L] it was 4.37; in that of QPPEMIGPMEPEQFSDEVEPATPE [R10E], 5.
In the case of QPPEMIGPMVPEQFSDEVEPATPE [R10V], the protein stability index was determined as 4.98.
For the variant QPPEMIGPMYPEQFSDEVEPATPE [R10Y], the protein stability index came out at 5.24.
Regarding QPPEMIGPMSPEQFSDEVEPATPE [R10S], the protein stability index turned out to be 5.56.
Next, QPPEMIGPMGPEQFSDEVEPATPE [R10G]: 4.82; QPPEMIGPMRPEPFSDEVEPATPE [Q13P]: 5.91.
Next, QPPEMIGPMRPEDFSDEVEPATPE [Q13D]: 4.11; QPPEMIGPMRPEFFSDEVEPATPE [Q13F]: 5.02.
In the case of QPPEMIGPMRPEAFSDEVEPATPE [Q13A] it was 5.12; in that of QPPEMIGPMRPESFSDEVEPATPE [Q13S], 5.46; in that of QPPEMIGPMRPEYFSDEVEPATPE [Q13Y], 5.5.
Regarding QPPEMIGPMRPENFSDEVEPATPE [Q13N], the protein stability index was 5.33.
In the case of QPPEMIGPMRPELFSDEVEPATPE [Q13L] it was 5.64; in that of QPPEMIGPMRPECFSDEVEPATPE [Q13C], 5.59; in that of QPPEMIGPMRPEMFSDEVEPATPE [Q13M], 4.96.
Consider QPPEMIGPMRPEIFSDEVEPATPE [Q13I], for which the protein stability index stood at 5.6.
In the case of QPPEMIGPMRPEGFSDEVEPATPE [Q13G] it was 5.78; in that of QPPEMIGPMRPEVFSDEVEPATPE [Q13V], 5.62; in that of QPPEMIGPMRPEKFSDEVEPATPE [Q13K], 5.34.
As for QPPEMIGPMRPEEFSDEVEPATPE [Q13E], the protein stability index was determined as 4.65.
Next, QPPEMIGPMRPEHFSDEVEPATPE [Q13H]: 5.45; QPPEMIGPMRPEWFSDEVEPATPE [Q13W]: 5.36.
Next, QPPEMIGPMRPETFSDEVEPATPE [Q13T]: 5.84.
